From patent publication US20180339057A1 (Novo Nordisk, published 2018)

T1: human MIC-1 receptor (hGFRAL, GDNF family receptor alpha like), full length (human, UniProt Q6UXV0 19-394)
T1 sequence (looked up): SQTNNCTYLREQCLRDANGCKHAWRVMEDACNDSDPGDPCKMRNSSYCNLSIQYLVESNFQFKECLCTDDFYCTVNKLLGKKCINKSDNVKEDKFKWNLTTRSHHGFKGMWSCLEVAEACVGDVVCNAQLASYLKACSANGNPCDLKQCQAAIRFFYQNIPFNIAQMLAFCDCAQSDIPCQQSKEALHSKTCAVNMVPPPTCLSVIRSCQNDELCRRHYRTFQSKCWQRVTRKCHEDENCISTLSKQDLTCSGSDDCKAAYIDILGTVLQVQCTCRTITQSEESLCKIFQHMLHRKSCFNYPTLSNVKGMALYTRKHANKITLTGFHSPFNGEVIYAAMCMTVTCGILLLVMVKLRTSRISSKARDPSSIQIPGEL


Molecular target: T1, human MIC-1 receptor (hGFRAL, GDNF …)
Assay: cell-based or functional assay

Emax (%) | pERK EC50 (nM) | Binder
100 | 0.5 | (AEE)5AES-MIC-1-Δ1-3 (ligand) AEEAEEAEEAEEAEEAESGDHCPLGPGRCCRLHTVRASLEDLGWADWVLSPREVQVTMCIGACPSQFRAANMHAQIKTSLHRLKPDTVPAPCCVPASYNPMVLIQKTDTGVSLQTYDDLLAKDCHCI
100 | 0.5 | MIC-1(R2A,N3E,H18E) (ligand) AAEGDHCPLGPGRCCRLETVRASLEDLGWADWVLSPREVQVTMCIGACPSQFRAANMHAQIKTSLHRLKPDTVPAPCCVPASYNPMVLIQKTDTGVSLQTYDDLLAKDCHCI
70 | 0.3 | MIC-1(R2A,N3E,M57E) (ligand) AAEGDHCPLGPGRCCRLHTVRASLEDLGWADWVLSPREVQVTMCIGACPSQFRAANEHAQIKTSLHRLKPDTVPAPCCVPASYNPMVLIQKTDTGVSLQTYDDLLAKDCHCI
100 | 0.3 | MIC-1(R2A,N3E,A54E) (ligand) AAEGDHCPLGPGRCCRLHTVRASLEDLGWADWVLSPREVQVTMCIGACPSQFREANMHAQIKTSLHRLKPDTVPAPCCVPASYNPMVLIQKTDTGVSLQTYDDLLAKDCHCI
100 | 0.8 | MIC-1(R2A,N3E,L68E) (ligand) AAEGDHCPLGPGRCCRLHTVRASLEDLGWADWVLSPREVQVTMCIGACPSQFRAANMHAQIKTSLHREKPDTVPAPCCVPASYNPMVLIQKTDTGVSLQTYDDLLAKDCHCI
100 | 0.4 | MIC-1(R2A,N3E,P11E) (ligand) AAEGDHCPLGEGRCCRLHTVRASLEDLGWADWVLSPREVQVTMCIGACPSQFRAANMHAQIKTSLHRLKPDTVPAPCCVPASYNPMVLIQKTDTGVSLQTYDDLLAKDCHCI
100 | 0.6 | MIC-1(R2A,N3E,P85E) (ligand) AAEGDHCPLGPGRCCRLHTVRASLEDLGWADWVLSPREVQVTMCIGACPSQFRAANMHAQIKTSLHRLKPDTVPAPCCVPASYNEMVLIQKTDTGVSLQTYDDLLAKDCHCI
100 | 0.4 | MIC-1(R2A,N3E,A47E) (ligand) AAEGDHCPLGPGRCCRLHTVRASLEDLGWADWVLSPREVQVTMCIGECPSQFRAANMHAQIKTSLHRLKPDTVPAPCCVPASYNPMVLIQKTDTGVSLQTYDDLLAKDCHCI
100 | 0.3 | AES-MIC-1-Δ1-3 (ligand) AESGDHCPLGPGRCCRLHTVRASLEDLGWADWVLSPREVQVTMCIGACPSQFRAANMHAQIKTSLHRLKPDTVPAPCCVPASYNPMVLIQKTDTGVSLQTYDDLLAKDCHCI
100 | 0.5 | MIC-1(R2A,N3E,R67E) (ligand) AAEGDHCPLGPGRCCRLHTVRASLEDLGWADWVLSPREVQVTMCIGACPSQFRAANMHAQIKTSLHELKPDTVPAPCCVPASYNPMVLIQKTDTGVSLQTYDDLLAKDCHCI
100 | 0.5 | MIC-1(R2A,N3E,K69E) (ligand) AAEGDHCPLGPGRCCRLHTVRASLEDLGWADWVLSPREVQVTMCIGACPSQFRAANMHAQIKTSLHRLEPDTVPAPCCVPASYNPMVLIQKTDTGVSLQTYDDLLAKDCHCI
100 | 0.3 | MIC-1(R2A, N3E) (ligand) AAEGDHCPLGPGRCCRLHTVRASLEDLGWADWVLSPREVQVTMCIGACPSQFRAANMHAQIKTSLHRLKPDTVPAPCCVPASYNPMVLIQKTDTGVSLQTYDDLLAKDCHCI
100 | 0.7 | MIC-1(R2A,N3E,A30E) (ligand) AAEGDHCPLGPGRCCRLHTVRASLEDLGWEDWVLSPREVQVTMCIGACPSQFRAANMHAQIKTSLHRLKPDTVPAPCCVPASYNPMVLIQKTDTGVSLQTYDDLLAKDCHCI
100 | 0.7 | MIC-1(R2A,N3E,L105E) (ligand) AAEGDHCPLGPGRCCRLHTVRASLEDLGWADWVLSPREVQVTMCIGACPSQFRAANMHAQIKTSLHRLKPDTVPAPCCVPASYNPMVLIQKTDTGVSLQTYDDLEAKDCHCI
100 | 0.3 | MIC-1(R2A,N3E,K107E) (ligand) AAEGDHCPLGPGRCCRLHTVRASLEDLGWADWVLSPREVQVTMCIGACPSQFRAANMHAQIKTSLHRLKPDTVPAPCCVPASYNPMVLIQKTDTGVSLQTYDDLLAEDCHCI
100 | 0.4 | MIC-1(R2A,N3E,R53E) (ligand) AAEGDHCPLGPGRCCRLHTVRASLEDLGWADWVLSPREVQVTMCIGACPSQFEAANMHAQIKTSLHRLKPDTVPAPCCVPASYNPMVLIQKTDTGVSLQTYDDLLAKDCHCI
100 | 0.6 | MIC-1(R2A,N3E,R21E) (ligand) AAEGDHCPLGPGRCCRLHTVEASLEDLGWADWVLSPREVQVTMCIGACPSQFRAANMHAQIKTSLHRLKPDTVPAPCCVPASYNPMVLIQKTDTGVSLQTYDDLLAKDCHCI
100 | 0.3 | TSESATPESGPGTSESATPESGPG-MIC-1(R2A,N3E) (ligand) TSESATPESGPGTSESATPESGPGAAEGDHCPLGPGRCCRLHTVRASLEDLGWADWVLSPREVQVTMCIGACPSQFRAANMHAQIKTSLHRLKPDTVPAPCCVPASYNPMVLIQKTDTGVSLQTYDDLLAKDCHCI
100 | 0.5 | AAPEDEETPEQEGSGSGSGSGS-MIC-1-Δ1-3 (ligand) AAPEDEETPEQEGSGSGSGSGSGDHCPLGPGRCCRLHTVRASLEDLGWADWVLSPREVQVTMCIGACPSQFRAANMHAQIKTSLHRLKPDTVPAPCCVPASYNPMVLIQKTDTGVSLQTYDDLLAKDCHCI
100 | 0.5 | AAPDEGTEEETEGSGSGSGSGS-MIC-1-Δ1-3 (ligand) AAPDEGTEEETEGSGSGSGSGSGDHCPLGPGRCCRLHTVRASLEDLGWADWVLSPREVQVTMCIGACPSQFRAANMHAQIKTSLHRLKPDTVPAPCCVPASYNPMVLIQKTDTGVSLQTYDDLLAKDCHCI
100 | 0.7 | AASPAGSPTSTEEGTSESATPESGPG-MIC-1-Δ1-3 (ligand) AASPAGSPTSTEEGTSESATPESGPGGDHCPLGPGRCCRLHTVRASLEDLGWADWVLSPREVQVTMCIGACPSQFRAANMHAQIKTSLHRLKPDTVPAPCCVPASYNPMVLIQKTDTGVSLQTYDDLLAKDCHCI
100 | 0.3 | AEEAES-MIC-1-Δ1-3 (ligand) AEEAESGDHCPLGPGRCCRLHTVRASLEDLGWADWVLSPREVQVTMCIGACPSQFRAANMHAQIKTSLHRLKPDTVPAPCCVPASYNPMVLIQKTDTGVSLQTYDDLLAKDCHCI
100 | 0.5 | (GEPS)5-MIC-1(SEQ ID NO: 1) (ligand) GEPSGEPSGEPSGEPSGEPSARNGDHCPLGPGRCCRLHTVRASLEDLGWADWVLSPREVQVTMCIGACPSQFRAANMHAQIKTSLHRLKPDTVPAPCCVPASYNPMVLIQKTDTGVSLQTYDDLLAKDCHCI
100 | 0.4 | (AEE)2AES-MIC-1-Δ1-3 (ligand) AEEAEEAESGDHCPLGPGRCCRLHTVRASLEDLGWADWVLSPREVQVTMCIGACPSQFRAANMHAQIKTSLHRLKPDTVPAPCCVPASYNPMVLIQKTDTGVSLQTYDDLLAKDCHCI
100 | 0.5 | (AEE)3AES-MIC-1-Δ1-3 (ligand) AEEAEEAEEAESGDHCPLGPGRCCRLHTVRASLEDLGWADWVLSPREVQVTMCIGACPSQFRAANMHAQIKTSLHRLKPDTVPAPCCVPASYNPMVLIQKTDTGVSLQTYDDLLAKDCHCI
100 | 0.5 | AAPEDEETPEQE-MIC-1-Δ1-3 (ligand) AAPEDEETPEQEGDHCPLGPGRCCRLHTVRASLEDLGWADWVLSPREVQVTMCIGACPSQFRAANMHAQIKTSLHRLKPDTVPAPCCVPASYNPMVLIQKTDTGVSLQTYDDLLAKDCHCI
100 | 0.8 | (AEE)6AES-MIC-1 (ligand) AEEAEEAEEAEEAEEAEEAESGDHCPLGPGRCCRLHTVRASLEDLGWADWVLSPREVQVTMCIGACPSQFRAANMHAQIKTSLHRLKPDTVPAPCCVPASYNPMVLIQKTDTGVSLQTYDDLLAKDCHCI
100 | 0.4 | AASPAGSPTSTEEGTSESATPESGPG-MIC-1(SEQ ID NO: 1) (ligand) AASPAGSPTSTEEGTSESATPESGPGARNGDHCPLGPGRCCRLHTVRASLEDLGWADWVLSPREVQVTMCIGACPSQFRAANMHAQIKTSLHRLKPDTVPAPCCVPASYNPMVLIQKTDTGVSLQTYDDLLAKDCHCI
100 | 0.4 | SPAGSPTSTEEGTSESATPESGPG-MIC-1(SEQ ID NO: 1) (ligand) SPAGSPTSTEEGTSESATPESGPGARNGDHCPLGPGRCCRLHTVRASLEDLGWADWVLSPREVQVTMCIGACPSQFRAANMHAQIKTSLHRLKPDTVPAPCCVPASYNPMVLIQKTDTGVSLQTYDDLLAKDCHCI
